Assay results published in patent US20250084183A1.

Target: CD99 on RD-ES and SK-ES-1 Ewing sarcoma cells (UniProt P14209)
Assay: not stated (given with the antibody's description, refers to FIG. 57)

Kd: 0.01 µM
Substance: αCD99 antibody (clone: 12E7)
